Reference: IntAct's records for PubMed 19955185

B1: Peroxisome proliferator-activated receptor alpha (Homo sapiens), Q07869 (parent)
chain: MVDTESPLCPLSPLEAGDLESPLSEEFLQEMGNIQEISQSIGEDSSGSFGFTEYQYLGSCPGSDGSVITDTLSPASSPSSVTYPVVPGSVDESPSGALNIECRICGDKASGYHYGVHACEGCKGFFRRTIRLKLVYDKCDRSCKIQKKNRNKCQYCRFHKCLSVGMSHNAIRFGRMPRSEKAKLKAEILTCEHDIEDSETADLKSLAKRIYEAYLKNFNMNKVKARVILSGKASNNPPFVIHDMETLCMAEKTLVAKLVANGIQNKEAEVRIFHCCQCTSVETVTELTEFAKAIPGFANLDLNDQVTLLKYGVYEAIFAMLSSVMNKDGMLVAYGNGFITREFLKSLRKPFCDIMEPKFDFAMKFNALELDDSDISLFVAAIICCGDRPGLLNVGHIEKMQEGIVHVLRLHLQSNHPDDIFLFPKLLQKMADLRQLVTEHAQLVQIIKKTESDAALHPLLQEIYRDMY

Variants of: B1
Conditions: with ncor1_human NCOR1, O75376
Chain of ncor1_human NCOR1, O75376 (O75376 whole entry): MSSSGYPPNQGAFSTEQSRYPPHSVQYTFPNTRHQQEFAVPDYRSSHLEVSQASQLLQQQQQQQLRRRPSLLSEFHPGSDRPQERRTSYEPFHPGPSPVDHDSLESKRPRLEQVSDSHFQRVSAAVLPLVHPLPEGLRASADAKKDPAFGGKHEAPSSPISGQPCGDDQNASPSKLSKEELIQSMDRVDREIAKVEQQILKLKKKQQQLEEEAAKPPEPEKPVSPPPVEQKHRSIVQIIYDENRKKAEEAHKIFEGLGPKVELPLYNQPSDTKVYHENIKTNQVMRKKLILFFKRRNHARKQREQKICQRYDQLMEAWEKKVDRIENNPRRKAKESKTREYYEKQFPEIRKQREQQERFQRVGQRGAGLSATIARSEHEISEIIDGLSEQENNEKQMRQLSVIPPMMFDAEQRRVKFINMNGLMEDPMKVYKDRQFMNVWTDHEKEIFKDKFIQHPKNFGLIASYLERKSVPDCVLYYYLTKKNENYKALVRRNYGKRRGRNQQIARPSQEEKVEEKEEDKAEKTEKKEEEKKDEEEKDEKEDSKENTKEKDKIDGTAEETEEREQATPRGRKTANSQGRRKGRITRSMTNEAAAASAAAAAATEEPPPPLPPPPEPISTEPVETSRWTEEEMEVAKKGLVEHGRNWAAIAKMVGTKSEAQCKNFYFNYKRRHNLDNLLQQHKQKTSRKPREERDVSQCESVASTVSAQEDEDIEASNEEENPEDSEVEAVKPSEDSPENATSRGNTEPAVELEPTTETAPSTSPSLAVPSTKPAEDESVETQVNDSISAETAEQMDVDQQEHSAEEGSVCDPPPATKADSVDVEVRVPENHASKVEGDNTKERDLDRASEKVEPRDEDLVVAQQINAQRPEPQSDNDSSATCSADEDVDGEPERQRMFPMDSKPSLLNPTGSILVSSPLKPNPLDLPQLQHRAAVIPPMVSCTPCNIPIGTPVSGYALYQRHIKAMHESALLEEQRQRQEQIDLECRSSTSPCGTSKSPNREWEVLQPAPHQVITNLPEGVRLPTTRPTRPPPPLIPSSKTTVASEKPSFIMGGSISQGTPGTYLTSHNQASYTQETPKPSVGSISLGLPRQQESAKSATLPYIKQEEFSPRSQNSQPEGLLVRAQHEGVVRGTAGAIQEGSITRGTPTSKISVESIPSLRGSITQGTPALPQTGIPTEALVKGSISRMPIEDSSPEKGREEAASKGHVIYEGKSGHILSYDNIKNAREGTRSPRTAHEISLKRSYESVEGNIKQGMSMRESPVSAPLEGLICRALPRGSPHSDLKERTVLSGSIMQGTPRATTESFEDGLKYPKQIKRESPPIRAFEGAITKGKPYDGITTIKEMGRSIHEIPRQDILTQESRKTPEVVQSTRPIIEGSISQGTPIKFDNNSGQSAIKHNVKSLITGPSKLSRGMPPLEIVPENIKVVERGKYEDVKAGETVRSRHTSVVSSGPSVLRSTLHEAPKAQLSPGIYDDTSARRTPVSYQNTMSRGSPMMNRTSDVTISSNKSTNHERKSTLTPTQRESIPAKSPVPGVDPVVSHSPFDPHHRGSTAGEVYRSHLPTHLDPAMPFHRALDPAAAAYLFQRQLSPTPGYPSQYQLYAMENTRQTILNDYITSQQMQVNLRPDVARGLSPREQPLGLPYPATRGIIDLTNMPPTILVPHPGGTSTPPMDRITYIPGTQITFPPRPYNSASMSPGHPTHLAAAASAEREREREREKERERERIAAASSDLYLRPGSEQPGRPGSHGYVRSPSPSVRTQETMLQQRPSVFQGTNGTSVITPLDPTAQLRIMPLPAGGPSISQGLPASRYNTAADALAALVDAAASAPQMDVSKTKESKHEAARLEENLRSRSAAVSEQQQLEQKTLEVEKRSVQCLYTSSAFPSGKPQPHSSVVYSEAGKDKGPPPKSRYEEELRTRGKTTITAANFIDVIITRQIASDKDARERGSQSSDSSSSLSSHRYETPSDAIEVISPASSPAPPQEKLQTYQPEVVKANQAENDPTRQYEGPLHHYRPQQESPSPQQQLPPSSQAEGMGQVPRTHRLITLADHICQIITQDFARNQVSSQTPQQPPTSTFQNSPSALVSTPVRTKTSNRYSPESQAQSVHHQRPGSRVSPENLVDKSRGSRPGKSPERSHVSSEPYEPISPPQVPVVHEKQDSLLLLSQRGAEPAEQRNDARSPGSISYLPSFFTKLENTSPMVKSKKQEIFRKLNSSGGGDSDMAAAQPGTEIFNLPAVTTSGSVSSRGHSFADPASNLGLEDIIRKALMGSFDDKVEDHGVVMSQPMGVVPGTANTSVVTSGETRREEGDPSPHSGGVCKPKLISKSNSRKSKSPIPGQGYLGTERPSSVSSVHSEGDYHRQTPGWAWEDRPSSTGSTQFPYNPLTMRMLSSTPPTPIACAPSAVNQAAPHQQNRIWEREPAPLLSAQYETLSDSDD

| effect of a mutation on the interaction | Variant |
| --- | --- |
| decreasing interaction | K185R |
